In assay [1] the target is T1, human LAG-3 on cells (HEK293-hLAG-3 stable cell line) (human, UniProt P18627 23-525).
T1 sequence: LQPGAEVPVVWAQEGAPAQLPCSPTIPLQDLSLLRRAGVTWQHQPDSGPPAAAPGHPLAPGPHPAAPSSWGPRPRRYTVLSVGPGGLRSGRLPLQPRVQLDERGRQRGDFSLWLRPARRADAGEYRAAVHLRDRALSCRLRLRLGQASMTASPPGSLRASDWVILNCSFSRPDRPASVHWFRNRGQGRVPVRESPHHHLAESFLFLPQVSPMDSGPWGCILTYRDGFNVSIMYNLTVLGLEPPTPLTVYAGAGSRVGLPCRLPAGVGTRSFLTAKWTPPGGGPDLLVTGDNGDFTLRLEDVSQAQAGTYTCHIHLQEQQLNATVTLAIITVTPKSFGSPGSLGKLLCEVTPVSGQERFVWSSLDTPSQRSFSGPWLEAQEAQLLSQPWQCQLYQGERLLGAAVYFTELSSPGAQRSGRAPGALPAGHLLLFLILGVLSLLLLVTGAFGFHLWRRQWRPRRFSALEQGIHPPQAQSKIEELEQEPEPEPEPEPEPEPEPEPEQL
Nature of the assay: FACS, HEK293-hLAG-3, antibody 8 nM. For orientation: A flow cytometer gives signals particle by particle.

Assay [2] addresses T1, human LAG-3 on cells (HEK293-hLAG-3 …). The experiment in a line: FACS, HEK293-hLAG-3, antibody 40 nM.
Assay [3] shares this target. Nature of the assay: FACS, HEK293-hLAG-3, antibody 0.064 nM.
For assay [4] the target is unchanged. The experiment in a line: FACS, HEK293-hLAG-3, antibody 0.32 nM.
Assay [5] shares this target. The experiment in a line: FACS, HEK293-hLAG-3, antibody 0 nM.
Assay [6] has the same target. Nature of the assay: FACS, HEK293-hLAG-3, antibody 1.6 nM.
The target is the same in assay [7]. Nature of the assay: FACS, HEK293-hLAG-3, antibody 0.013 nM.
Assay [8] has as its target T2, human LAG-3 ECD (antigen protein of the affinity test) (human, UniProt P18627 23-450).
T2 sequence: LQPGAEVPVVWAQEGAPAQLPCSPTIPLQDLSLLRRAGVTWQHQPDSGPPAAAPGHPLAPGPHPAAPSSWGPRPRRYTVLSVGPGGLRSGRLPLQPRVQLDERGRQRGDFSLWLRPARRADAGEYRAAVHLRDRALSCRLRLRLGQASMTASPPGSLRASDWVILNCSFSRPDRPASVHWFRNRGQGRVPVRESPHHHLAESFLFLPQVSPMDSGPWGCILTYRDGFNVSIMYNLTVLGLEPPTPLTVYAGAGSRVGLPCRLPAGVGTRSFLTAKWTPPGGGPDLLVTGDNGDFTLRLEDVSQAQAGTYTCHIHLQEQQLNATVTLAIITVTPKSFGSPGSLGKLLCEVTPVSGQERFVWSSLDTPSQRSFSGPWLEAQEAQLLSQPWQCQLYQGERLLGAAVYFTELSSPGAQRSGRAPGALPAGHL
The experiment in a line: SPR, CM5 chip, antibody captured by anti-human Fc IgG, antigen in flow, 1:1 fit. The protocol:
First, anti-human Fc IgG was immobilized on the surface of the CM5 chip to 6000-10000 RU by amino coupling method, with FC1 as the reference channel. The coupling process was as follows: a freshly prepared 1:1 mixture of 50 mM NHS and 200 mM EDC was activated for 7 minutes, then injected with 10-50 ug/ml anti-human Fc IgG diluted in 10 mM sodium acetate ph5.0 buffer. The remaining activated sites were blocked with 1M ethanolamine. Then, HBS-EP+ buffer was used to dilute the antibody to be tested to 5 ug/ml (adjustable according to the capture level) and the antibodies were captured on the chip at a flow rate of 10 ul/min to obtain a response value of about 100˜300 RU. Then the antigen protein was diluted to 100 nM (the highest concentration was tentatively 100 nM), and flew through the chip surface at a flow rate of 30 ul/min. If enough signal value was obtained, the antigen-protein was diluted by several concentration gradients, and flew through the chip surface respectively. At the end of each cycle, the chip surface was regenerated with 10 mM Glycine at pH 1.5. The kinetic rate constant needed to be subtracted from the blank control, and the data was fitted with the global fit analysis method 1:1 combination model. The dissociation equilibrium rate constant (KD) was calculated according to the following formula: KD=kd/ka.
(In SPR one partner is held on a chip, and binding of the other changes the refractive index at the surface.)

Assay [9] concerns the target T1, human LAG-3 on cells (HEK293-hLAG-3 …). The experiment in a line: FACS, HEK293-hLAG-3, antibody 8 nM. The source says: (§1) A. The binding of antibodies to LAG-3 expressing cells was detected by Flow cytometry (FACS), wherein the method was according to that of Example 5.
This is another data set of the same source.

Assay [10] has the same target. Nature of the assay: FACS, HEK293-hLAG-3, antibody 0.064 nM.
From the text: as §1
The source holds these as a separate data set.

Assay [11] has the same target. Nature of the assay: FACS, HEK293-hLAG-3, antibody 1.6 nM. This is another data set of the same source.
For assay [12] the target is unchanged. The experiment in a line: FACS, HEK293-hLAG-3, antibody 0.32 nM.
From the text: as §1
The source holds these as a separate data set.

The target is the same in assay [13]. The experiment in a line: FACS, HEK293-hLAG-3, antibody 0.013 nM.
From the text: as §1
This is another data set of the same source.

Assay [14] has the same target. Nature of the assay: FACS, HEK293-hLAG-3, antibody 40 nM.
From the text: as §1
The source holds these as a separate data set.

The target is the same in assay [15]. Nature of the assay: FACS, HEK293-hLAG-3, antibody 0 nM. The source holds these as a separate data set.

B1: 556F6B8-6 humanized antibody (antibody, V domains shown)
VH: QVQLQESGPGLVKPSETLSLTCTVSGFSIIKYGVHWIRQPPGKGLEWIGVIWRGGITDYNAAFMSRVTISVDTSKNQFSLKLSSVTAADTAVYYCARWDGPLAMDYWGQGTTVTVSS
VL: DIVLTQSPSFLSASVGDRVTITCKASQDVGTTVAWYQQKPGKAPKLLIYWASTRHTGVPSRFSGSGSGTEFTLTISSLQPEDFATYYCQQYSSYPYTFGQGTKLEIK
Turning to B1, the Mean fluorescence intensity in assay [1] came to 39; in assay [2], 50; in assay [3] it was 6; in [4], 10; in assay [5] it was 4; in assay [6], 23. The molecule further had a Mean fluorescence intensity in assay [7] of 4.

B2: 556F6B8-2 humanized antibody (antibody, V domains shown)
VH: QVQLQESGPGLVKPSETLSLTCTVSGFSIIKYGVHWIRQPPGKGLEWIGVIWRGGITDYNAAFMSRVTISVDTSKNQFSLKLSSVTAADTAVYYCARWDGPLAMDYWGQGTTVTVSS
VL: DIQLTQSPSFLSASVGDRVTITCKASQDVGTTVAWYQQKPGKAPKLLIYWASTRHTGVPSRFSGSGSGTEFTLTISSLQPEDFATYYCQQYSSYPYTFGQGTKLEIK
As for B2, the Mean fluorescence intensity stood at 37 in assay [1]; 49 in assay [2]; 5 in assay [3]; 10 in [4]; 4 in assay [5]; 23 in assay [6]. Moreover, in [7], the Mean fluorescence intensity was determined as 4.

B3: 556F6B8-1 humanized antibody (antibody, V domains shown)
VH: QVQLQESGPGLVKPSETLSLTCTVSGGSISKYGVHWIRQPPGKGLEWIGVIWRGGITDYNAAFMSRVTISVDTSKNQFSLKLSSVTAADTAVYYCARWDGPLAMDYWGQGTTVTVSS
VL: DIQLTQSPSFLSASVGDRVTITCKASQDVGTTVAWYQQKPGKAPKLLIYWASTRHTGVPSRFSGSGSGTEFTLTISSLQPEDFATYYCQQYSSYPYTFGQGTKLEIK
Consider B3, for which the Mean fluorescence intensity in assay [1] was 19; in assay [2], 33; in [3], 4; in assay [4], 5; in [5], 4; in assay [6], 9. The molecule further had a Mean fluorescence intensity in assay [7] of 4.

B4: 556F6B8-4 humanized antibody (antibody, V domains shown)
VH: RVQLQESGPGLVKPSETLSLTCTVSGFSLIKYGVHWIRQPPGKGLEWIGVIWRGGITDYNAAFMSRVTISKDTSKSQVSLKLSSVTAADTAVYYCAKWDGPLAMDYWGQGTTVTVSS
VL: DIQLTQSPSFLSASVGDRVTITCKASQDVGTTVAWYQQKPGKAPKLLIYWASTRHTGVPSRFSGSGSGTEFTLTISSLQPEDFATYYCQQYSSYPYTFGQGTKLEIK
B4: the Mean fluorescence intensity in assay [1] was found to be 77; in assay [2] it was 82; in assay [3] it was 14; in [4] it was 32; in assay [5], 4; in assay [6], 62. The molecule also came in with a Mean fluorescence intensity in assay [7] of 7.

B5: 556F6B8-5 humanized antibody (antibody, V domains shown)
VH: QVQLQESGPGLVKPSETLSLTCTVSGGSISKYGVHWIRQPPGKGLEWIGVIWRGGITDYNAAFMSRVTISVDTSKNQFSLKLSSVTAADTAVYYCARWDGPLAMDYWGQGTTVTVSS
VL: DIVLTQSPSFLSASVGDRVTITCKASQDVGTTVAWYQQKPGKAPKLLIYWASTRHTGVPSRFSGSGSGTEFTLTISSLQPEDFATYYCQQYSSYPYTFGQGTKLEIK
For the molecule B5, the Mean fluorescence intensity in [1] worked out at 16; in assay [2], 32; in assay [3], 4; in assay [4] it was 5; in assay [5], 4; in assay [6], 8. The molecule also registered a Mean fluorescence intensity in [7] of 4.

B6: 556F6B8-8 humanized antibody (antibody, V domains shown)
VH: RVQLQESGPGLVKPSETLSLTCTVSGFSLIKYGVHWIRQPPGKGLEWIGVIWRGGITDYNAAFMSRVTISKDTSKSQVSLKLSSVTAADTAVYYCAKWDGPLAMDYWGQGTTVTVSS
VL: DIVLTQSPSFLSASVGDRVTITCKASQDVGTTVAWYQQKPGKAPKLLIYWASTRHTGVPSRFSGSGSGTEFTLTISSLQPEDFATYYCQQYSSYPYTFGQGTKLEIK
Take B6: the Mean fluorescence intensity in assay [1] was 79; in assay [2], 83; in assay [3], 15; in [4], 36; in assay [5], 4; in [6] it was 64. The molecule also gave a Mean fluorescence intensity in assay [7] of 8.

B7: 405B8H3-6 humanized antibody (antibody, V domains shown)
VH: QVQLVQSGAEVKKPGASVKVSCKASGYTFTDYEMHWVRQAPGQGLEWMGATDPETGNSAYNQKFKGRVTMTADKSTSTVYMELSSLRSEDTAVYYCISTGWNDWGQGTTVTVSS
VL: DIQMTQSPSSLSASVGDRVTITCKASQDINSYLSWFQQKPGKAPKSLIYRADRLLDGVPSRFSGSGSGQDYTLTISSLQPEDFATYYCLQYDEFPYTFGQGTKLEIK
Usually Kd stands for the free concentration of one partner at which half of the binding sites on the other are occupied at equilibrium, for simple one-to-one binding. Usually koff stands for a measure of how fast the partners let go of each other. As a reminder, the kon is a measure of how fast the partners come together. For B7, in assay [8], the Kd was 2.04 nM. Also, the koff in assay [8] worked out at 0.000193 s⁻¹. In [8], the kon turned out to be 94900 M⁻¹ s⁻¹. The Mean fluorescence intensity in assay [9] was 242; in [10], 21; in assay [11], 179; in [12], 66; in assay [13], 9; in [14], 254. This molecule also showed a Mean fluorescence intensity in assay [15] of 4.
